Measurements reported in patent US20230046744A1 (APO T B V, published 2023).

Columns and labels:
[1] = target: HLA-A*2402/… complex on CHO-S cells (human); experiment: flow cytometry on CHO-S transfectants
Method: Non transfected CHO-S cells were used as a control. For the staining 200′000 cells were suspended in 100 μl PBS containing 0.1% BSA. […] After 30 minutes incubation at 40° C. the cells were washed two times with 200 μl PBS containing 0.1% BSA. […] After the incubation, cells were washed again two times with 200 μl PBS containing 0.1% BSA.

[2] = target: T1, biotinylated HLA-A*2402/… complex (human, biotinylated complex, site not stated); experiment: ELISA, biotinylated complexes on streptavidin plates
T1 construct: control complex on streptavidin plates

[3] = target: T2, biotinylated HLA-A*2402/… complex (human, biotinylated complex, site not stated); experiment: ELISA, biotinylated complexes on streptavidin plates, dilution series of the antibody
T2 construct: recombinant complex on streptavidin plates

[4] = target: T3, HLA-A*0201/… with alanine at peptide position 3, on peptide-pulsed JY cells (human); experiment: flow cytometry, peptide-pulsed JY cells
T3 construct: built from the parent peptide and the stated change
Method: (§1) Briefly, 200′000 JY cells were incubated (pulsed) overnight under serum free conditions with 100 μg/ml peptide variants. The amino acids of the used peptides were sequentially substituted for an alanine (information regarding sequences of peptides is summarized FIG. 3B).

[5] = target: T4, HLA-A*0201/… with alanine at peptide position 4, on peptide-pulsed JY cells (human); experiment: flow cytometry, peptide-pulsed JY cells
T4 construct: built from the parent peptide and the stated change
Method: as §1

[6] = target: T5, HLA-A*0201/… with alanine at peptide position 5, on peptide-pulsed JY cells (human); experiment: flow cytometry, peptide-pulsed JY cells
T5 construct: built from the parent peptide and the stated change
Method: as §1

[7] = target: T6, HLA-A*0201/… with alanine at peptide position 6, on peptide-pulsed JY cells (human); experiment: flow cytometry, peptide-pulsed JY cells
T6 construct: built from the parent peptide and the stated change
Method: as §1

[8] = target: T7, CD3 molecule expressed on the surface of T cells (human, UniProt P07766 23-207); experiment: flow cytometry on PBMCs
T7 construct: whole, on cells; CD3 complex on cells; also called CD3 on PBMCs; CD3 on surface of immune effector cells
T7 sequence (P07766 23-207): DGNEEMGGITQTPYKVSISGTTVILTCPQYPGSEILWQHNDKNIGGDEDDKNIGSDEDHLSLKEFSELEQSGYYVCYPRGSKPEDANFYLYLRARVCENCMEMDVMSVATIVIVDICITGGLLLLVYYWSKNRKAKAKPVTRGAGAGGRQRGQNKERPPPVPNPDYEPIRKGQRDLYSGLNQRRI

B1: murine 9A7 IgG (antibody, V domains shown)
VH: QVQLQQPGAELVKPGASVKLSCKASGYTFTSFWMHWVKQRPGQGLEWIGEIDSSDSYTNYNQKFKGKATLTVDKSSSTAYMQLSSLTSDDSAVYYCARRVGRGYFDYWGQGTTLTVSS
VL: DIVMTQSHKFMSTSVGDRVSITCKASQDVRTAVVWYQQKPGQSPKLLIYWASTRHTGVPDRFTGSGSGTDYILTISSVQAEDLALYYCQQYDTTPWTFGGGTKVEIK
notes: mouse IgG from hybridoma; also called mouse 9A7 IgG; 9A7 murine antibody
Q: Which results are given for B1?
A: binding result [1]: no binding (tested: dilution series starting at 222 nM); binding result [2]: no binding (tested: dilution series starting at 100 nM); IC50 [3]: 0.037 nM

B2: 4A6 IgG (antibody, V domains shown)
VH: EVQLVQSGAEVKKPGSSVKVSCKASGGTFSSYAISWVRQAPGQGLEWMGGIIPIFGTADYAQKFQGRATITADESTSTAYMELSSLRSEDTAVYYCARDYDFWSGYYAGDVWGQGTTVTVSS
VL: QSALTQPASVSGSPGQSITISCTGTSSDVGGYNYVSWYQQHPGKAPKLMIYDVSNRPSGVSNRFSGSKSGNTASLTISGLQAEDEADYYCSSYTSSSTRVFGGGTKLTVL
notes: IgG detected with anti-human IgG; also called 4A6 antibody
Q: Which results are given for B2?
A: binding result [4]: no binding; binding result [5]: no binding; binding result [6]: no binding; binding result [7]: no binding

B3: 4A6_SC_FV (scFv, V domains shown)
VH: B2 VH
VL: B2 VL
notes: scFv of 4A6; VH and VL are those named for 4A6; also called monospecific antibody fragment
Q: Does B3 bind [8]?
A: Result: no binding (tested: 50 ng/ml)
